In patent publication US20240350646A1, “METHODS AND COMPOSITIONS FOR DELIVERY TO AND ACROSS THE BLOOD BRAIN BARRIER” (NUtech Ventures, priority 2021, published 2024):

Assays:
[1] = NP characterization: TEM particle diameter, DLS hydrodynamic size, zeta potential; assay type: physicochemical
Experimental: A high voltage transmission electron microscope (TEM) (Tecnai Osiris™, 200 kV) was used to measure particle diameters of PEG diacid coated Gd NPs. A copper grid (PELCO mesh size 400, TED PELLA, INC.) covered with an amorphous carbon membrane was placed onto a filter paper. Then, a sample solution diluted in triply distilled water was dropped over the copper grid by using a micropipette (Eppendorf, 2-20 μL). Dynamic light scattering (DLS) studies of the NPs were conducted using a Malvern Instruments Zetasizer Nano series instrument. Solutions of the NPs were prepared in DPBS (pH 7.4) at a concentration of 0.05 mM. The resulting solutions were filtered with 0.22 μm filters before the measurement. The NP concentration was determined by using an inductively coupled plasma mass spectrometer (ICPMS) (Agilent 7500 cx). To determine this, ˜0.5 mL of the NP solution was taken out and treated with HNO3 to dissolve nanoparticles in the solution completely. A Fourier transform-infrared (FT-IR) (Nicolet AVATAR 380 FT-IR) was used to verify the surface coating. To record the FT-IR absorption spectrum (400-4000 cm^−1), the powder sample was prepared. Peptide attachment to NPs was confirmed using BCA assay. Attaching efficiency was confirmed using the equation, Conjugation Efficiency of peptide (%)=Amount of peptide in NPs/Initial amount of peptide×100.

human claudin-9 = target: T1, human claudin-9 (human, UniProt O95484 1-217, limits assumed); experiment: MST, sigmoidal dose-response fit (GraphPad Prism) of the FIG. 10A data; fit did not converge [panel B]
T1 sequence (looked up): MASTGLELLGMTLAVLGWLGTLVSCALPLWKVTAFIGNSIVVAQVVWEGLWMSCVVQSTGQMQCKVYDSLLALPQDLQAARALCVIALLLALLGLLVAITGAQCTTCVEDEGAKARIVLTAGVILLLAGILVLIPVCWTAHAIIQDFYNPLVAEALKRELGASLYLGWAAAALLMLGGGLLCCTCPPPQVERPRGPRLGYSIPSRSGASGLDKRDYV
Experimental: (§1) FIG. 10C is a graph showing the binding of human claudins 4 and 9 to control NPs monitored using microscale thermophoresis. […] Data fitting for human claudins 3, 4 and 9 were performed using Graph Pad Prism.
Human claudin-1 was expressed and purified as reported previously (Vecchio & Stroud, 2019, PNAS USA, 116:17817-24). MST measurements were performed using a Monolith instrument (NanoTemper Technologies). For experiments with human claudin-1, the assay buffer contained 10 mM Tris HCl, pH 8.0, 100 mM NaCl, 4% glycerol, and 0.04% n-Dodecyl-β-D-Maltopyranoside (β-DDM). NPs and peptides were labeled with AF647 prior to MST analysis as described above. For the binding experiments, the concentration of human claudin-1 was varied from 2.2-73,500 nM and the AF647-labeled C1C2-NP was fixed at 70 nM, while the AF647 labeled NPs and AF647 labeled C1C2 peptide were fixed at 1 and 0.3 μM, respectively. Binding of the AF647 labeled C1C2-NP to human claudin-3, -4, and -9 were tested using 0.4-14000 nM, 0.8-28000 nM, and 0.6-20000 nM, respectively; with the AF647 labeled C1C2-NP fixed at 70 nM. […] All experiments were conducted at 23° C. using the nano-red channel of the Monolith instrument and the data were analyzed by using either Monolith analysis software or Graph Pad Prism, version 9 (Graph Pad Software, San Diego, California).

human claudin-3 = target: T2, human claudin-3 (human, UniProt O15551 1-220, limits assumed); experiment: MST, sigmoidal dose-response fit (GraphPad Prism) of the FIG. 10A data; fit without amplitude, confidence interval undefined [panel B]
T2 sequence (looked up): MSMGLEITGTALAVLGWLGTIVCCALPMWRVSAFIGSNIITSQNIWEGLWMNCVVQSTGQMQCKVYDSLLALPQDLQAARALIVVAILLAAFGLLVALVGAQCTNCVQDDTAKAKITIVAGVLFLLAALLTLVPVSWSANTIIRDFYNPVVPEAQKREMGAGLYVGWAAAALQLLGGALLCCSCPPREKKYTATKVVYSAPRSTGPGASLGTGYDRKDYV
Experimental: as §1, with “FIG. 10A is a graph showing binding of human claudins 3, 4 and 9 to C1C2-NPs using microscale thermophoresis. […] FIG.” for “FIG.”
(§2) Human claudin-1 was expressed and purified as reported previously (Vecchio & Stroud, 2019, PNAS USA, 116:17817-24). MST measurements were performed using a Monolith instrument (NanoTemper Technologies). For experiments with human claudin-1, the assay buffer contained 10 mM Tris HCl, pH 8.0, 100 mM NaCl, 4% glycerol, and 0.04% n-Dodecyl-β-D-Maltopyranoside (β-DDM). NPs and peptides were labeled with AF647 prior to MST analysis as described above. For the binding experiments, the concentration of human claudin-1 was varied from 2.2-73,500 nM and the AF647-labeled C1C2-NP was fixed at 70 nM, while the AF647 labeled NPs and AF647 labeled C1C2 peptide were fixed at 1 and 0.3 μM, respectively. Binding of the AF647 labeled C1C2-NP to human claudin-3, -4, and -9 were tested using 0.4-14000 nM, 0.8-28000 nM, and 0.6-20000 nM, respectively; with the AF647 labeled C1C2-NP fixed at 70 nM. This assay buffer was similar, except β-DDM was replaced with 0.1% n-Undecyl-β-D-Maltopyranoside (beta-UDM).

human claudin-4 = target: T3, human claudin-4 (human, UniProt O14493 1-209, limits assumed); experiment: MST, sigmoidal dose-response fit (GraphPad Prism) of the FIG. 10A data, M is the unit of the concentration axis of panel A; confidence interval undefined [panel B]
T3 sequence (looked up): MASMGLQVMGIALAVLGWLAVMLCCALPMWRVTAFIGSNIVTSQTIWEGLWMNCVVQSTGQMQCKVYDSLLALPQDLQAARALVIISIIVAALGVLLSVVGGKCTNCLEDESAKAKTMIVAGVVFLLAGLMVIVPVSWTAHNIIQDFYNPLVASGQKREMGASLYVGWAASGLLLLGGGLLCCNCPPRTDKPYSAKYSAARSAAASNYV
Experimental: as §1, with “FIG. 10A is a graph showing binding of human claudins 3, 4 and 9 to C1C2-NPs using microscale thermophoresis. […] FIG.” for “FIG.”
as §2

Molecule: C1C2-NP: PEG diacid coated ultrasmall Gd NP conjugated with C1C2 peptide SSVSQSTGQIQSKVDSLLNLNSTQATR (SEQ ID NO: 6); claudin-1 targeted (Ac-SSVSQSTGQIQSKVDSLLNLNSTQATR-NH2; also: conjugated to PEG diacid coated ultrasmall Gd nanoparticle)
- Zeta Potential, mV (with NPs) [1]: 7.81 ± 0.38 mV
- Hydrodynamic size (nm) ([1]; DLS, DPBS pH 7.4): 14.5 ± 0.13 nm

B1: C1C2-NP (C1C2 peptide conjugated to PEG diacid coated ultrasmall Gd nanoparticles) (peptide)
peptide: Ac-SSVSQSTGQIQSKVDSLLNLNSTQATR-NH2
modifications: not fully specified; also: conjugated by EDC-NHS chemistry to PEG diacid on Gd oxide nanoparticle surface (19 peptides per 3.5 nm particle)
notes: The protein part is the C1C2 peptide; the core is not a protein; also called C1C2-NPs; C1C2 NPs
- LogEC50 (human claudin-9): -0.661
- LogEC50 (human claudin-3): -7.05
- EC50 (human claudin-4): 20.1 µM
